Measured values published in US20230002489A1 (SHANGHAI EPIMAB BIOTHERAPEUTICS, published 2023).

What was measured:
[1] = target: T1, recombinant huCD3εγ/Fc fusion protein (fusion protein heterodimer) (human); experiment: SPR, Biacore T200, 25 C; antigen/Fc amine-coupled to the chip, FIT-Ig injected
T1 construct: also called huCD3/Fc dimer; heterodimeric CD3εγ/Fc fusion protein

[2] = target: T2, cynoCD3εγ/Fc fusion protein (cynomolgus monkey, UniProt Q95LI5 22-117; Q95LI7 23-113); experiment: as above
T2 construct: also called cynomolgus monkey CD3ε/γ heterodimer-Fc fusion protein; not shown: linker and Fc not described for the cynomolgus construct
T2 sequence (looked up) 1: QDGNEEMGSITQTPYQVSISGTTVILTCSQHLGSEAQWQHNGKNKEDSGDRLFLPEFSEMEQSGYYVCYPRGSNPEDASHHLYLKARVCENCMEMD
T2 sequence (looked up) 2: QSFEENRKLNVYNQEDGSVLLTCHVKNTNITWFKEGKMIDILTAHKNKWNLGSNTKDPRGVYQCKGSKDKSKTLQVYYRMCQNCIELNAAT

[3] = target: T3, cynomolgus BCMA(ECD)/Fc target polypeptide (cynomolgus); experiment: as above
T3 construct: extracellular domain; also called Cyno BCMA (ECD); cynoBCMA/Fc

[4] = target: T4, human CD3 on the surface of Jurkat cells (human, UniProt P07766 23-207; P09693 23-182; P04234 22-171); experiment: flow cytometry on Jurkat cells, Median-APC against antibody conc. (nM)
T4 construct: whole, on cells; Endogenous CD3 complex of the Jurkat T cell line; also called cell surface CD3 target on Jurkat cells; CD3-expressing Jurkat cells

[5] = target: T5, recombinant human BCMA extracellular domain/Fc dimer (human); experiment: SPR, Biacore T200, 25 C; antigen/Fc amine-coupled to the chip, FIT-Ig injected
T5 construct: also called Human BCMA (ECD); human BCMA(ECD)/Fc

BCMA on NCI-H929 cells [6] = target: T6, BCMA on NCI-H929 cells (human, UniProt Q02223 1-184); experiment: cell-based or functional assay
T6 sequence (looked up): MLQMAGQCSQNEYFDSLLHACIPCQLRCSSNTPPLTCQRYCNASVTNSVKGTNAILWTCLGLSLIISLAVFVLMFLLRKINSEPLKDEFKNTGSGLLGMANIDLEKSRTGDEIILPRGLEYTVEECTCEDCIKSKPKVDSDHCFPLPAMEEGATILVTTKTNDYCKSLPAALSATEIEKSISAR

[7] = target: T7, BCMA on HEK293F-BCMA-NF-kB-luc cells (clone 1H2) (UniProt Q02223 1-184, limits assumed); experiment: cell-based or functional assay
T7 sequence (looked up): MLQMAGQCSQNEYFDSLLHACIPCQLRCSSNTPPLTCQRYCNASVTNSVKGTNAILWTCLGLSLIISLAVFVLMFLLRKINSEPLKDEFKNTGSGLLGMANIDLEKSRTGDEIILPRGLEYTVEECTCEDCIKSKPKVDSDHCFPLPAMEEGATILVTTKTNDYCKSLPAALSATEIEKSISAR

[8] = target: T5, recombinant human BCMA extracellular …; experiment: SPR, Biacore T200, 25 C; antibody captured on anti-mouse IgG Fc, BCMA(ECD)/Fc injected
Description: (§1) Briefly, goat anti-mouse IgG Fc antibody was directly immobilized across a biosensor chip, and antibody samples were injected over reaction matrices at a flow rate of 5 μl/min. Mouse anti-BCMA IgG test antibody was injected over the immobilized surface and captured by the immobilized anti-Fc antibodies. Human and cynomolgus BCMA(ECD)/Fc target polypeptides were then injected over the captured mouse anti-BCMA IgG surface. The association and dissociation rate constants, kₒₙ (M⁻¹s⁻¹) and koff (s⁻¹), respectively, were determined with a continuous flow rate of 30 μl/min. Rate constants were derived by making kinetic binding measurements at five different concentrations of target BCMA(ECD) polypeptide. The equilibrium dissociation constant KD (M) of the reaction between antibodies and related target proteins was then calculated from the kinetic rate constants using the formula KD=koff/kₒₙ. Kinetic constants were determined by processing and fitting the data to a 1:1 binding model using Biacore analysis software.

[9] = target: T3, cynomolgus BCMA(ECD)/Fc target …; experiment: as above
Description: as §1

BCMA on NCI-H929 cells [10] = target: T6, BCMA on NCI-H929 cells; experiment: flow cytometry on NCI-H929 cells, Mean fluorescence against antibody conc. (nM)
Description: Binding activity of the chimeric bispecific BCMA/CD3 FIT-Ig antibodies was tested via flow cytometry with a human CD3/TCR complex transfected CHO cell line (CHOK1/CD3/TCR cells) and BCMA-expressing NCI-H929 cells. Briefly, 5×10⁵ cells in FACS buffer were seeded into 96 well plates. Cells were centrifuged at 400×g for 5 minutes and supernatants were discarded. For each well, 100 μl serially diluted FIT-Ig or FIT-Fab antibodies were then added and mixed with the cells. Following incubation for 40 minutes at 4° C., plates were washed several times to remove excess antibodies. Secondary antibody (goat anti-huIgG kappa chain specific) was then added and incubated with cells at room temperature for 20 minutes. After another round of centrifugation and washing, cells were resuspended with FACS buffer for reading on a CytoFLEX Flow Cytometer. Results were analyzed and plotted with GraphPad Prism 5.0 software.

[11] = target: T4, human CD3 on the surface of Jurkat cells; experiment: flow cytometry on Jurkat/NFAT/luc cells, MFI against antibody conc. (nM)

T4 sequence (P07766 23-207, chain 1 of 3): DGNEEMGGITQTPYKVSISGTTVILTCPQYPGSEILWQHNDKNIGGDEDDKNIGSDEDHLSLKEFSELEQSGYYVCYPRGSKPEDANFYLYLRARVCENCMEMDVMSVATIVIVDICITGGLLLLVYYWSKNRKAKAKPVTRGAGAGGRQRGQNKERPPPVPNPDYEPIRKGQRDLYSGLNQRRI
T4 sequence (P09693 23-182, chain 2 of 3): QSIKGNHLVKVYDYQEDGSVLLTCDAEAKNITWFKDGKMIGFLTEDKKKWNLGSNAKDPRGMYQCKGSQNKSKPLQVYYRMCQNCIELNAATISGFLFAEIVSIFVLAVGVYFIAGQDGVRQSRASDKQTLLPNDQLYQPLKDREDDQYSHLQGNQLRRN
T4 sequence (P04234 22-171, chain 3 of 3): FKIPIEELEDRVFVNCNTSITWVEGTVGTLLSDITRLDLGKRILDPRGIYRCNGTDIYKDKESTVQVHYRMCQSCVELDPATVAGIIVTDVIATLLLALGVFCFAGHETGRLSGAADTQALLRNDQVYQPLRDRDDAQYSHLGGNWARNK
T1 sequence (chain, as listed by the source limits assumed, chain 1 of 2): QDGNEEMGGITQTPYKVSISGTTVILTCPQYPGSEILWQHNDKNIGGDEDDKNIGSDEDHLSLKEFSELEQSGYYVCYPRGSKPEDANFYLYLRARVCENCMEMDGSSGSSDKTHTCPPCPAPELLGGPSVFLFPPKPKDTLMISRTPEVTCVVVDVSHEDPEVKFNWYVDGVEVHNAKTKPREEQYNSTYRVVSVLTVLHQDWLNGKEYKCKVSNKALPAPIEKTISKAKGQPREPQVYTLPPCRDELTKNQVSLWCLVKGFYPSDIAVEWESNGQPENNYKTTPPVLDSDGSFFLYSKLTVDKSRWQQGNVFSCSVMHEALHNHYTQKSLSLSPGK
T1 sequence (chain, as listed by the source limits assumed, chain 2 of 2): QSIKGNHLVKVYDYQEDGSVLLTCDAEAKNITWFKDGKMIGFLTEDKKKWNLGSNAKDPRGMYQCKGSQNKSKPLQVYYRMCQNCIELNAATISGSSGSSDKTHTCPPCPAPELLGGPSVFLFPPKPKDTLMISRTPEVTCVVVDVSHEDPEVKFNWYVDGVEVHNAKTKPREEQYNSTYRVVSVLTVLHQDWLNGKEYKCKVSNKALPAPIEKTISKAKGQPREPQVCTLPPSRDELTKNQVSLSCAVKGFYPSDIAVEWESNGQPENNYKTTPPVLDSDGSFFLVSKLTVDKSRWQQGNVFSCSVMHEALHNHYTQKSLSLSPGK

B1: FIT1006-31b (D-E) (bispecific antibody, human IgG1, kappa, L234A L235A)
chain 1: not shown
chain 2: EVQLVQSGAEVKKPGASVKVSCKASGYTFTNFWMHWVRQAPGQRLEWMGAFYPGNDDTYYNQKFKGRVTITADTSASTAYMELSSLRSEDMAVYYCARSGYYGSSDAMDYWGQGTTVTVSSASTKGPSVFPLAPSSKSTSGGTAALGCLVKDYFPEPVTVSWNSGALTSGVHTFPAVLQSSGLYSLSSVVTVPSSSLGTQTYICNVNHKPSNTKVDKKVEPKSC
chain 3: not shown
notes: Humanized BCMA/CD3 FIT-Ig, outer BCMA and inner CD3 Fab, no linkers
Kd [1]: 17.1 nM | koff [1]: 0.00574 s⁻¹ | kon [1]: 337000 M⁻¹ s⁻¹ | Kd [2]: 10.8 nM | koff [2]: 0.00632 s⁻¹ | kon [2]: 583000 M⁻¹ s⁻¹ | Kd [3]: 1.61 nM | koff [3]: 0.000167 s⁻¹ | kon [3]: 104000 M⁻¹ s⁻¹

B2: FIT1006-35b(D-T) (bispecific antibody, human IgG1, kappa, L234A L235A)
chain 1: not shown
chain 2: EVQLVQSGAEVKKPGASVKVSCKASGYTFTNFWMHWVRQAPGQRLEWMGAFYPGNDDTYYNQKFKGRVTITADTSASTAYMELSSLRSEDMAVYYCARSGYYGSSDAMDYWGQGTTVTVSSASTKGPSVFPLAPSSKSTSGGTAALGCLVKDYFPEPVTVSWNSGALTSGVHTFPAVLQSSGLYSLSSVVTVPSSSLGTQTYICNVNHKPSNTKVDKKVEPKSC
chain 3: not shown
notes: Humanized BCMA/CD3 FIT-Ig, outer BCMA and inner CD3 Fab
binding result [4]: binds

B3: FIT1006-29b(D-A) (bispecific antibody, human IgG1, kappa, L234A L235A)
chain 1: not shown
chain 2: EVQLVQSGAEVKKPGASVKVSCKASGYTFPNFWMHWVRQAPGQRLEWIGAFYPGNDDTYYNQKFKGKATLTADTSASTAYMELSSLRSEDMAVYYCARSGYYGSSDAMDYWGQGTTVTVSSASTKGPSVFPLAPSSKSTSGGTAALGCLVKDYFPEPVTVSWNSGALTSGVHTFPAVLQSSGLYSLSSVVTVPSSSLGTQTYICNVNHKPSNTKVDKKVEPKSC
chain 3: not shown
notes: as for B2
Kd [1]: 16.7 nM | koff [1]: 0.00585 s⁻¹ | kon [1]: 349000 M⁻¹ s⁻¹ | Kd [2]: 11.2 nM | koff [2]: 0.00607 s⁻¹ | kon [2]: 541000 M⁻¹ s⁻¹ | Kd [5]: < 0.057 nM | koff [5]: < 5e-06 s⁻¹ | kon [5]: 87800 M⁻¹ s⁻¹ | Kd [3]: 1.09 nM | koff [3]: 0.00021 s⁻¹ | kon [3]: 192000 M⁻¹ s⁻¹

B4: mAbBCMA-002 (antibody, V domains shown)
VH: QIQLVQSGPELKKPGETVKISCKASGYSFTNYGLNWVKQAPGKGLKWMGWINTYSGHPTYVDDFKGRFAFSLETSASTAYLQINKLKNEDTSTYFCVREKDDGYRLGLDYWGQGTSVTVSS
VL: QIVLTQSPAIMSASPGEKVTMTCSASSSVSYMYWYQQRPGSSPRLWIYDTSNLVSGVPARFSGSRSGTSYSLTISGMEAEDAATYYCLQYSGYPYTFGGGTKLEIK
notes: Mouse anti-BCMA IgG from hybridoma
EC50 of inhibition of BAFF-induced NF-kB phosphorylation in NCI-H929 cells (inhibition %), unit from the axis (BCMA on NCI-H929 cells [6]): 34.8 nM | EC50 of inhibition of the BAFF-induced NF-kB luciferase signal in HEK293F-BCMA-NF-kB-luc cells (inhibition %; the curve reaches only about 30 % at 100 nM), unit from the axis [7]: 20.1 nM | Kd [8]: 13.8 nM | koff [8]: 0.00292 s⁻¹ | kon [8]: 212000 M⁻¹ s⁻¹ | Kd [9]: 7.55 nM | koff [9]: 0.000304 s⁻¹ | kon [9]: 40300 M⁻¹ s⁻¹

B5: FIT1006-6a-Fab (bispecific antibody, not shown: small tags and cut ends)
chain 1: not shown
chain 2: EVQLVQSGAEVKKPGASVKVSCKASGYTFTNYYVHWMRQAPGQGLEWIGWISPGSDNTKYNEKFKGRVTLTADTSISTAYMELSRLRSDDTAVYYCARDDYGNYYFDYWGQGTTVTVSSASTKGPSVFPLAPSSKSTSGGTAALGCLVKDYFPEPVTVSWNSGALTSGVHTFPAVLQSSGLYSLSSVVTVPSSSLGTQTYICNVNHKPSNTKVDKKVEPKSC
chain 3: DIQMTQSPASLSASVGETVTVTCGASENIYGALNWYQRKQGKSPQLLIYGATNLADGISSRFSGSGSGRQFSLKISSLLPDDVATYFCQSVLTTPWTFGGGTKLEIKRTVAAPSVFIFPPSDEQLKSGTASVVCLLNNFYPREAKVQWKVDNALQSGNSQESVTEQDSKDSTYSLSSTLTLSKADYEKHKVYACEVTHQGLSSPVTKSFNRGEC
notes: FIT-Fab made from FIT1006-6a by papain digestion (Fc removed)
binding result (BCMA on NCI-H929 cells [10]): binds

B6: FIT1006-31a(D-T) (bispecific antibody, human IgG1, kappa, L234A L235A)
chain 1: not shown
chain 2: EVQLVQSGAEVKKPGASVKVSCKASGFSFTNYYVHWMRQAPGQGLEWMGWISPGSDNTKYNEKFKGRVTMTRDTSISTAYMELSRLRSDDTAVYYCARDDYGNYYFDYWGQGTTVTVSSASTKGPSVFPLAPSSKSTSGGTAALGCLVKDYFPEPVTVSWNSGALTSGVHTFPAVLQSSGLYSLSSVVTVPSSSLGTQTYICNVNHKPSNTKVDKKVEPKSC
chain 3: DIQMTQSPSSLSASVGDRVTITCGASENIYGALNWYQQKPGKAPKLLIYGATNLATGIPSRFSGSGSGRDFTLTISSLQPEDFATYYCQSVLTTPWTFGQGTKLEIKRTVAAPSVFIFPPSDEQLKSGTASVVCLLNNFYPREAKVQWKVDNALQSGNSQESVTEQDSKDSTYSLSSTLTLSKADYEKHKVYACEVTHQGLSSPVTKSFNRGEC
EC50 (read off the curve) [11]: ~1 nM

B7: FIT1006-8a-Fab (bispecific antibody, not shown: small tags and cut ends)
chain 1: not shown
chain 2: EVQLVQSGAEVKKPGASVKVSCKASGYTFTNYYVHWVRQAPGQGLEWIGWISPGSDNTKYNEKFKGRVTLTADTSISTAYMELSRLRSDDTAVYYCARDDYGNYYFDYWGQGTTVTVSSASTKGPSVFPLAPSSKSTSGGTAALGCLVKDYFPEPVTVSWNSGALTSGVHTFPAVLQSSGLYSLSSVVTVPSSSLGTQTYICNVNHKPSNTKVDKKVEPKSC
chain 3: DIQMTQSPASLSASVGETVTVTCGASENIYGALNWYQRKQGKSPQLLIYGATNLADGISSRFSGSGSGRQFSLKISSLLPDDVATYFCQSVLTTPWTFGGGTKLEIKRTVAAPSVFIFPPSDEQLKSGTASVVCLLNNFYPREAKVQWKVDNALQSGNSQESVTEQDSKDSTYSLSSTLTLSKADYEKHKVYACEVTHQGLSSPVTKSFNRGEC
notes: FIT-Fab made from FIT1006-8a by papain digestion (Fc removed)
binding result (BCMA on NCI-H929 cells [10]): binds

B8: FIT1006-4a-Fab (bispecific antibody, not shown: small tags and cut ends)
chain 1: not shown
chain 2: EVQLVQSGAEVKKPGASVKVSCKASGFSFTNYYVHWMRQAPGQGLEWMGWISPGSDNTKYNEKFKGRVTMTRDTSISTAYMELSRLRSDDTAVYYCARDDYGNYYFDYWGQGTTVTVSSASTKGPSVFPLAPSSKSTSGGTAALGCLVKDYFPEPVTVSWNSGALTSGVHTFPAVLQSSGLYSLSSVVTVPSSSLGTQTYICNVNHKPSNTKVDKKVEPKSC
chain 3: DIQMTQSPASLSASVGETVTVTCGASENIYGALNWYQRKQGKSPQLLIYGATNLADGISSRFSGSGSGRQFSLKISSLLPDDVATYFCQSVLTTPWTFGGGTKLEIKRTVAAPSVFIFPPSDEQLKSGTASVVCLLNNFYPREAKVQWKVDNALQSGNSQESVTEQDSKDSTYSLSSTLTLSKADYEKHKVYACEVTHQGLSSPVTKSFNRGEC
binding result (BCMA on NCI-H929 cells [10]): binds

B9: FIT1006-35a(D-T) (bispecific antibody, human IgG1, kappa, L234A L235A)
chain 1: not shown
chain 2: EVQLVQSGAEVKKPGASVKVSCKASGFSFTNYYVHWMRQAPGQGLEWIGWISPGSDNTKYNEKFKGRVTLTADTSISTAYMELSRLRSDDTAVYYCARDDYGNYYFDYWGQGTTVTVSSASTKGPSVFPLAPSSKSTSGGTAALGCLVKDYFPEPVTVSWNSGALTSGVHTFPAVLQSSGLYSLSSVVTVPSSSLGTQTYICNVNHKPSNTKVDKKVEPKSC
chain 3: DIQMTQSPSSLSASVGDRVTITCGASENIYGALNWYQQKPGKAPKLLIYGATNLATGIPSRFSGSGSGRDFTLTISSLQPEDFATYYCQSVLTTPWTFGQGTKLEIKRTVAAPSVFIFPPSDEQLKSGTASVVCLLNNFYPREAKVQWKVDNALQSGNSQESVTEQDSKDSTYSLSSTLTLSKADYEKHKVYACEVTHQGLSSPVTKSFNRGEC
binding result [11]: binds
